Experimental findings from patent US20210284734A1 are described below.

In this experiment the target is cyno PD1. The experiment is described as follows: flow cytometry, PD-1-transfected CHO-S cells; mAb 10 ug/ml, then R-PE PD-L1-Fc as blocked ligand.
Chain of cyno PD1 (receptor, as listed by the source limits assumed): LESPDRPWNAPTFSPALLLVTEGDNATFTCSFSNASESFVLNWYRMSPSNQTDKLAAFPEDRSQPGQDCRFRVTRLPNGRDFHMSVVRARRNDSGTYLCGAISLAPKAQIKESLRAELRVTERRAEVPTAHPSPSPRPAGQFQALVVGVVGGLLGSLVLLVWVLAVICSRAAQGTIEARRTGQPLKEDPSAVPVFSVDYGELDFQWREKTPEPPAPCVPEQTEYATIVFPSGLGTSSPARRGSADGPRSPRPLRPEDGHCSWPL

Chain of pembrolizumab analogue (antibody) (VH): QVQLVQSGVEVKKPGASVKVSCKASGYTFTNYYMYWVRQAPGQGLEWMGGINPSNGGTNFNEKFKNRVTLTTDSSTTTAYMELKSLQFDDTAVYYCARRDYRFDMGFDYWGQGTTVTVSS
Chain of pembrolizumab analogue (antibody) (VL): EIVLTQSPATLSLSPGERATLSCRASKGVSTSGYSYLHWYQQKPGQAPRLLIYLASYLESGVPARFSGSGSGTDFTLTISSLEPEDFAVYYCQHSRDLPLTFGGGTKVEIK

In turn, pembrolizumab analogue (antibody) registered a % of all cells in Q2 of panel PD-L1 binding (PD-L1+, CFSE+ cyno PD1 cells) of 0.38%; a % of all cells in Q3 of panel PD-L1 binding (PD-L1-, CFSE+ cyno PD1 cells) of 52.5%; a % of cyno PD1-gated cells in Q1 (mAb+, PD-L1-) of 44.7%; a % of cyno PD1-gated cells in Q2 (mAb+, PD-L1+) of 3.84%. Besides, the % of cyno PD1-gated cells in Q3 (mAb-, PD-L1+) is 0.92% and the % of cyno PD1-gated cells in Q4 (mAb-, PD-L1-) worked out at 50.6%.
